The results in this text go back to US12134635 (SONNET BIOTHERAPEUTICS, dated 2024).

One assay concerns the target IL-18 binding protein (UniProt O95998). In words: Biacore T200 SPR, CM5 chip, IL-18BP as immobilized ligand, hIL-18 titrated, 25 C. In general terms: SPR reads the build-up and loss of mass on a sensor chip optically.
For another assay, the target named is T1, IL-18 receptor (UniProt Q13478 19-541; O95256 20-599, limits assumed).
T1 sequence (looked up) 1: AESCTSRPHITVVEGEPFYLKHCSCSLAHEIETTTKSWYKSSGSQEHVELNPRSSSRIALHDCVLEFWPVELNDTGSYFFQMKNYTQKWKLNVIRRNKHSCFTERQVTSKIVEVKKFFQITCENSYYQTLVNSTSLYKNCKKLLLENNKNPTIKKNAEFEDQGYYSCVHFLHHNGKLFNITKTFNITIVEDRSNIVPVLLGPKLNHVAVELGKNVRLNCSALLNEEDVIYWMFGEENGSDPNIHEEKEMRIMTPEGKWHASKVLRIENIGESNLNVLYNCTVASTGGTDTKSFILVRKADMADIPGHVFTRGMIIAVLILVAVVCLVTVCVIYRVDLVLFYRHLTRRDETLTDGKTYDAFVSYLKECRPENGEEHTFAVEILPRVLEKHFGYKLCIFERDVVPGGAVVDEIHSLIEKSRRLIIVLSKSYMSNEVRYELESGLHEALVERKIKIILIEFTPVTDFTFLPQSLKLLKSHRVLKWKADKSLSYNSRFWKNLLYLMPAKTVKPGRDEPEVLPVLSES
T1 sequence (looked up) 2: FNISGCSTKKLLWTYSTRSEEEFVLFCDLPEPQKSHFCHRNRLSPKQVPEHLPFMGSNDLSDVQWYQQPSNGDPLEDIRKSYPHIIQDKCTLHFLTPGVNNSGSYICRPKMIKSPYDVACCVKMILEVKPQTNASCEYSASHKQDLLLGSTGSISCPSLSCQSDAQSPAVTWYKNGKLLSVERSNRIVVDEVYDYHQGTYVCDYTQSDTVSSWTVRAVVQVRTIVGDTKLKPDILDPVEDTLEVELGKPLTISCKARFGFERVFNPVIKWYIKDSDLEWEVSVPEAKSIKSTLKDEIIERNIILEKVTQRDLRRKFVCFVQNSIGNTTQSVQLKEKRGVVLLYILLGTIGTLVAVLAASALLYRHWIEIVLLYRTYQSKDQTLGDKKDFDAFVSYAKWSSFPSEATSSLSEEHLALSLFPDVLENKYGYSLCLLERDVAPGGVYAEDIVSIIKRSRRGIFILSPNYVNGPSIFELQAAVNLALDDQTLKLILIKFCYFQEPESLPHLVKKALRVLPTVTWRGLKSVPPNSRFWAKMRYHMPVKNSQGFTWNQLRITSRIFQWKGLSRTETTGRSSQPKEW
In words: cell-based or functional assay.

“Recombinant hIL-18 (NIBSC wildtype) (from UniProt Q14116 37-193) (ligand)”: the Kd in the assay with IL-18 binding protein is 56 pM.

B1: hIL-18 Variant A (ligand)
chain: WFGKLESKLSVIRNLNDQVLFIDQGNRPLFEDMTDSDSRDNAPRTIFIISYYKDSQPRGWAVTISVKSEKISTLSSENKIISFKEMNPPDNIKDTKSDIIFFQRSVPGHYNKMQFESSSYEGYFLASEKERDLFKLILKKEDELGDRSIMFTVQNED
Consider B1, for which the “EC50 (read off the curve), HEK-Blue IL-18 reporter, OD at 640 nM” value with IL-18 receptor was around 0.03 ng/mL.

Broadly, the Kd is the constant that tells how readily two partners part at equilibrium.
